# Results: patent publication US9163227B2, “Anti-diabetic compounds” (PFIZER INC., priority 2011, dated 2015)
# B1: [SEQ ID NO: 10-L1] (protein, listed as Homo sapiens)
# chain: PIPDSSPLLQFGGQVRQRYLYTDDAQQTEAHLEIREDGTVGGAADQSPESLLQLKALKPGVIQILGVKTSRFLCQRPDGALYGSLHFDPEACSFRELLLEDGYNVYQSEAHGLPLHLPGNKSPHRDPCPRGPARFLPLPGLPPALPEPPGILAPQPPDVGSSDPLSMVGPSQGRSPSYAS
# modifications: L1 linker attached
# Columns and labels:
# [1] = Stability of linkers L1-L4 conjugated to FGF21 (LC-MS); format: physicochemical; settings: linker conjugated to FGF21ΔH-A129C
# Protocol: The following experiment was performed to investigate the chemical stability over 2 weeks of the four linkers upon conjugation to FGF21: each linker was conjugated to FGF21, placed at +4° C. storage conditions, and aliquots were removed and quenched by freezing at specific time points, and linker stability was monitored by LCMS analysis.
# The four linkers were dissolved in DMSO from lyophilized stock material. […] L1 was reacted with protein for 30 mins; L2, L3 and L4 were reacted for 2 hrs. The conjugation reaction was quenched by removal of excess linkers through size-exclusion resin. Conjugated FGF21ΔH-A129C protein was placed at +4° C. for stability storage. […] Analysis of linker stability was performed by LC-MS analysis to determine the relative amount of unconjugated protein, protein+linker conjugation, and single and double hydrolysis events of the conjugated protein+linker.
# Linker hydrolysis is the critical analytical variable in this experiment. Hydrolysis was monitored by observing the subsequent addition of H2O to the FGF21-linker complex. A single addition of H2O, +(1) H2O, likely indicates the hydrolysis of the active AZD group that is present on all 4 linkers. The addition of a second H2O molecule, +(2) H2O, is a strong indicator of hydrolysis (eg—chemical instability) in the linker. L1 is particularly susceptible because of the presence of a maleimide functional group.
# [2] = Hydrolysis of the reactive group of [SEQ ID NO:10-L1] over time; format: physicochemical; settings: 4° C., FGF21 RP chromatography
# Protocol: Fine Tune of Conjugation Conditions for FGF21-Linker: The laboratory scale-ups were performed at different scales with a variety of optimized buffers and pHs. […] Since hydrolysis of reactive group of SEQ ID NO:10-L1 occurs over time (Table 27), post activation diafiltration of SEQ ID NO:10-L1 should be operated at between about 2 and about 10° C. The amount of SEQ ID NO:10-L1 after post activation diafiltration varied in different experiments, and the difference could contribute to the variation of the conjugation efficiency for h38C2-[SEQ ID NO:10-L1]1. About 100 mM Phosphate pH about 6.3 gave the least aggregates and highest h38C2 remaining for recycle purpose.
# The above sample was further passed through the UFDF to remove excess linker and TCEP. The membrane was sanitized with 1N NaOH for 30 min, drained, and equilibrated with 100 mM MES, pH 7.0. Buffer 100 mM MES, pH 7.0 was used for diafilteration (7× diafilteration). Diafiltration was done at 4 g/L retentate concentration. Foaming and splashing may be avoided during UF/DF. Hydrolysis of the reactive group of [SEQ ID NO:10-L1] occurred over the diafiltration process. The hold time for post-activation DF pool should be minimized. UF may be operated at 2-10° C. using 10K Sartorius Hydrosart membrane. The combined species [SEQ ID NO:10-L1] confirmed by FGF21 RP was down from 73% to 64% after UF/DF.
# [3] = +4° C. storage, LC-MS, of total measured protein, 0 hrs
molecule,measurement,setting,value
CC1=CC(=O)N(CC2CCC(C(=O)NCCOCCOCCC(=O)Nc3ccc(CCC(=O)N4CCC4=O)cc3)CC2)C1=O (centres unmarked) [Compound L4],0 linker (unconjugated protein),[1]; [3],20%
same,1 linker (protein+linker conjugation),"[1]; +4° C., 0 hrs",46%
same,+(1) H2O (single hydrolysis),"[1]; +4° C., 0 hrs",28%
same,+(2) H2O (double hydrolysis),"[1]; +4° C., 0 hrs",6%
same,0 linker (unconjugated protein),"[1]; +4° C., 24 hrs",20%
same,1 linker (protein+linker conjugation),"[1]; +4° C., 24 hrs",46%
same,+(1) H2O (single hydrolysis),"[1]; +4° C., 24 hrs",27%
same,+(2) H2O (double hydrolysis),"[1]; +4° C., 24 hrs",7%
same,0 linker (unconjugated protein),"[1]; +4° C., 72 hrs",21%
same,1 linker (protein+linker conjugation),"[1]; +4° C., 72 hrs",42%
same,+(1) H2O (single hydrolysis),"[1]; +4° C., 72 hrs",30%
same,+(2) H2O (double hydrolysis),"[1]; +4° C., 72 hrs",7%
same,0 linker (unconjugated protein),"[1]; +4° C., 168 hrs",21%
same,1 linker (protein+linker conjugation),"[1]; +4° C., 168 hrs",41%
same,+(1) H2O (single hydrolysis),"[1]; +4° C., 168 hrs",32%
same,+(2) H2O (double hydrolysis),"[1]; +4° C., 168 hrs",6%
same,0 linker (unconjugated protein),"[1]; +4° C., 336 hrs",22%
same,1 linker (protein+linker conjugation),"[1]; +4° C., 336 hrs",41%
same,+(1) H2O (single hydrolysis),"[1]; +4° C., 336 hrs",31%
same,+(2) H2O (double hydrolysis),"[1]; +4° C., 336 hrs (2 weeks)",6%
"O=C(CCN1C(=O)C=CC1=O)NCCOCCOCCC(=O)Nc1ccc(CCC(=O)N2CCC2=O)cc1 [Compound L1, 3-(2,5-dioxo-2,5-dihydro-1H-pyrrol-1-yl)-N-(2-(2-(3-oxo-3-(4-(3-oxo-3-(2-oxoazetidin-1-yl)propyl)phenylamino)propoxy)ethoxy)ethyl)propanamide]",0 linker (unconjugated protein),[1]; [3],13%
same,1 linker (protein+linker conjugation),"[1]; +4° C., 0 hrs",49%
same,+(1) H2O (single hydrolysis),"[1]; +4° C., 0 hrs",30%
same,+(2) H2O (double hydrolysis),"[1]; +4° C., 0 hrs",8%
same,0 linker (unconjugated protein),"[1]; +4° C., 24 hrs",14%
same,1 linker (protein+linker conjugation),"[1]; +4° C., 24 hrs",41%
same,+(1) H2O (single hydrolysis),"[1]; +4° C., 24 hrs",34%
same,+(2) H2O (double hydrolysis),"[1]; +4° C., 24 hrs",11%
same,0 linker (unconjugated protein),"[1]; +4° C., 72 hrs",14%
same,1 linker (protein+linker conjugation),"[1]; +4° C., 72 hrs",40%
same,+(1) H2O (single hydrolysis),"[1]; +4° C., 72 hrs",35%
same,+(2) H2O (double hydrolysis),"[1]; +4° C., 72 hrs",11%
same,0 linker (unconjugated protein),"[1]; +4° C., 168 hrs",10%
same,1 linker (protein+linker conjugation),"[1]; +4° C., 168 hrs",33%
same,+(1) H2O (single hydrolysis),"[1]; +4° C., 168 hrs",40%
same,+(2) H2O (double hydrolysis),"[1]; +4° C., 168 hrs",18%
same,0 linker (unconjugated protein),"[1]; +4° C., 336 hrs",12%
same,1 linker (protein+linker conjugation),"[1]; +4° C., 336 hrs",28%
same,+(1) H2O (single hydrolysis),"[1]; +4° C., 336 hrs",41%
same,+(2) H2O (double hydrolysis),"[1]; +4° C., 336 hrs (2 weeks)",18%
CC1=CC(=O)N(CCC(=O)NCCOCCOCCC(=O)Nc2ccc(CCC(=O)N3CCC3=O)cc2)C1=O [Compound L2],0 linker (unconjugated protein),[1]; [3],22%
same,1 linker (protein+linker conjugation),"[1]; +4° C., 0 hrs",45%
same,+(1) H2O (single hydrolysis),"[1]; +4° C., 0 hrs",27%
same,+(2) H2O (double hydrolysis),"[1]; +4° C., 0 hrs",6%
same,0 linker (unconjugated protein),"[1]; +4° C., 24 hrs",23%
same,1 linker (protein+linker conjugation),"[1]; +4° C., 24 hrs",43%
same,+(1) H2O (single hydrolysis),"[1]; +4° C., 24 hrs",26%
same,+(2) H2O (double hydrolysis),"[1]; +4° C., 24 hrs",8%
same,0 linker (unconjugated protein),"[1]; +4° C., 72 hrs",24%
same,1 linker (protein+linker conjugation),"[1]; +4° C., 72 hrs",37%
same,+(1) H2O (single hydrolysis),"[1]; +4° C., 72 hrs",32%
same,+(2) H2O (double hydrolysis),"[1]; +4° C., 72 hrs",8%
same,0 linker (unconjugated protein),"[1]; +4° C., 168 hrs",24%
same,1 linker (protein+linker conjugation),"[1]; +4° C., 168 hrs",40%
same,+(1) H2O (single hydrolysis),"[1]; +4° C., 168 hrs",29%
same,+(2) H2O (double hydrolysis),"[1]; +4° C., 168 hrs",7%
same,0 linker (unconjugated protein),"[1]; +4° C., 336 hrs",26%
same,1 linker (protein+linker conjugation),"[1]; +4° C., 336 hrs",38%
same,+(1) H2O (single hydrolysis),"[1]; +4° C., 336 hrs",28%
same,+(2) H2O (double hydrolysis),"[1]; +4° C., 336 hrs (2 weeks)",8%
CC1=CC(=O)N(CCOCCOCCC(=O)Nc2ccc(CCC(=O)N3CCC3=O)cc2)C1=O [Compound L3],0 linker (unconjugated protein),[1]; [3],19%
same,1 linker (protein+linker conjugation),"[1]; +4° C., 0 hrs",45%
same,+(1) H2O (single hydrolysis),"[1]; +4° C., 0 hrs",30%
same,+(2) H2O (double hydrolysis),"[1]; +4° C., 0 hrs",6%
same,0 linker (unconjugated protein),"[1]; +4° C., 24 hrs",18%
same,1 linker (protein+linker conjugation),"[1]; +4° C., 24 hrs",47%
same,+(1) H2O (single hydrolysis),"[1]; +4° C., 24 hrs",27%
same,+(2) H2O (double hydrolysis),"[1]; +4° C., 24 hrs",8%
same,0 linker (unconjugated protein),"[1]; +4° C., 72 hrs",19%
same,1 linker (protein+linker conjugation),"[1]; +4° C., 72 hrs",43%
same,+(1) H2O (single hydrolysis),"[1]; +4° C., 72 hrs",30%
same,+(2) H2O (double hydrolysis),"[1]; +4° C., 72 hrs",8%
same,0 linker (unconjugated protein),"[1]; +4° C., 168 hrs",19%
same,1 linker (protein+linker conjugation),"[1]; +4° C., 168 hrs",43%
same,+(1) H2O (single hydrolysis),"[1]; +4° C., 168 hrs",29%
same,+(2) H2O (double hydrolysis),"[1]; +4° C., 168 hrs",8%
same,0 linker (unconjugated protein),"[1]; +4° C., 336 hrs",20%
same,1 linker (protein+linker conjugation),"[1]; +4° C., 336 hrs",43%
same,+(1) H2O (single hydrolysis),"[1]; +4° C., 336 hrs",29%
same,+(2) H2O (double hydrolysis),"[1]; +4° C., 336 hrs (2 weeks)",8%
B1,% FGF21,[2]; 0 hour,13.4%
same,% FGF21 dimer,[2]; 0 hour,1.8%
same,% Hydrolyzed reactive FGF21ΔH-A129C-L1,[2]; 0 hour,6.5%
same,% Other,[2]; 0 hour,1.6%
same,% reactive FGF21ΔH-A129C-L1,[2]; 0 hour,76.7%
same,% FGF21,[2]; 1 hour,13.2%
same,% FGF21 dimer,[2]; 1 hour,2.8%
same,% Hydrolyzed reactive FGF21ΔH-A129C-L1,[2]; 1 hour,8.8%
same,% Other,[2]; 1 hour,1.6%
same,% reactive FGF21ΔH-A129C-L1,[2]; 1 hour,73.6%
same,% FGF21,[2]; 2 hrs,14.4%
same,% FGF21 dimer,[2]; 2 hrs,4.0%
same,% Hydrolyzed reactive FGF21ΔH-A129C-L1,[2]; 2 hrs,10.6%
same,% Other,[2]; 2 hrs,1.9%
same,% reactive FGF21ΔH-A129C-L1,[2]; 2 hrs,69.1%
same,% FGF21,[2]; 3 hrs,13.3%
same,% FGF21 dimer,[2]; 3 hrs,4.1%
same,% Hydrolyzed reactive FGF21ΔH-A129C-L1,[2]; 3 hrs,13.6%
same,% Other,[2]; 3 hrs,1.9%
same,% reactive FGF21ΔH-A129C-L1,[2]; 3 hrs,67.1%
same,% FGF21,[2]; 4 hrs,13.9%
same,% FGF21 dimer,[2]; 4 hrs,4.5%
same,% Hydrolyzed reactive FGF21ΔH-A129C-L1,[2]; 4 hrs,14.9%
same,% Other,[2]; 4 hrs,1.8%
same,% reactive FGF21ΔH-A129C-L1,[2]; 4 hrs,64.9%
same,% FGF21,[2]; 5 hrs,14.3%
same,% FGF21 dimer,[2]; 5 hrs,5.0%
same,% Hydrolyzed reactive FGF21ΔH-A129C-L1,[2]; 5 hrs,16.9%
same,% Other,[2]; 5 hrs,1.9%
same,% reactive FGF21ΔH-A129C-L1,[2]; 5 hrs,61.9%
same,% FGF21,[2]; 6 hrs,13.9%
same,% FGF21 dimer,[2]; 6 hrs,5.2%
same,% Hydrolyzed reactive FGF21ΔH-A129C-L1,[2]; 6 hrs,18.8%
same,% Other,[2]; 6 hrs,1.8%
same,% reactive FGF21ΔH-A129C-L1,[2]; 6 hrs,60.3%
same,% FGF21,[2]; 8 hrs,14.5%
same,% FGF21 dimer,[2]; 8 hrs,5.7%
same,% Hydrolyzed reactive FGF21ΔH-A129C-L1,[2]; 8 hrs,22.3%
same,% Other,[2]; 8 hrs,1.7%
same,% reactive FGF21ΔH-A129C-L1,[2]; 8 hrs,55.8%
same,% FGF21,[2]; 10 hrs,15.0%
same,% FGF21 dimer,[2]; 10 hrs,5.9%
same,% Hydrolyzed reactive FGF21ΔH-A129C-L1,[2]; 10 hrs,25.0%
same,% Other,[2]; 10 hrs,1.8%
same,% reactive FGF21ΔH-A129C-L1,[2]; 10 hrs,52.3%
